# Experimental data as given in patent US12319742 (SHATTUCK LABS, dated 2025).
# T1: biotinylated recombinant human TNFRSF25-His tagged (Acro #TN5-H52H3) (human, UniProt Q93038 25-199, biotinylated)
# T1 construct: treated as the same protein; also called recombinant biotin-conjugated human TNFRSF25 protein; DR3
# T1 sequence (looked up): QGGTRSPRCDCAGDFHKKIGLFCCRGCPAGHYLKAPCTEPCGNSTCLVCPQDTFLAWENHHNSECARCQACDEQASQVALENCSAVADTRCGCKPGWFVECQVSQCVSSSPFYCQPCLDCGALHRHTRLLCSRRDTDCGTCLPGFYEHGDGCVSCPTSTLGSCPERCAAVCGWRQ
# B1: SL-034 (antibody, human IgG1, kappa, L234A L235A, N297A)
# heavy: QVQLQQSGPGLVKPSQTLSLTCAISGDSVSGYSAAWNWIRQSPSRGLEWLGRTYYRSKWYNDYAVSVKSRITINPDTSKNQFSLQLNSVTPEDTAVYYCARDYYGSESYYNRGYYYYGMDVWGQGTTVTVSSASTKGPSVFPLAPSSKSTSGGTAALGCLVKDYFPEPVTVSWNSGALTSGVHTFPAVLQSSGLYSLSSVVTVPSSSLGTQTYICNVNHKPSNTKVDKKVEPKSCDKTHTCPPCPAPEAAGGPSVFLFPPKPKDTLMISRTPEVTCVVVDVSHEDPEVKFNWYVDGVEVHNAKTKPREEQYASTYRVVSVLTVLHQDWLNGKEYKCKVSNKALPAPIEKTISKAKGQPREPQVYTLPPSREEMTKNQVSLTCLVKGFYPSDIAVEWESNGQPENNYKTTPPVLDSDGSFFLYSKLTVDKSRWQQGNVFSCSVMHEALHNHYTQKSLSLSPGK
# light: AIQLTQSPSSLSASVGDRVTITCRASPGISSALAWYQQKPGKAPKLLMYDESSQESGVPSRFSGSGSGTDFTLTISSLQPEDFATYYCQQFNDYPLTFGGGTKVEIKRTVAAPSVFIFPPSDEQLKSGTASVVCLLNNFYPREAKVQWKVDNALQSGNSQESVTEQDSKDSTYSLSSTLTLSKADYEKHKVYACEVTHQGLSSPVTKSFNRGEC
# notes: Same variable regions as SL-033; also called clone 034; L234A/L235A+N297A
# B2: SL-061_LS (antibody, human IgG1, kappa)
# heavy: QVQLQQSGPGLVKPSQTLSLTCAISGDSVSGYSAAWNWIRQSPSRGLEWLGRTYYRSKWYNDYAVSVKSRITINPDTSKNQFSLQLNSVTPEDTAVYYCARDYYGSESYYNRGYYYYGMDVWGQGTTVTVSSASTKGPSVFPLAPSSKSTSGGTAALGCLVKDYFPEPVTVSWNSGALTSGVHTFPAVLQSSGLYSLSSVVTVPSSSLGTQTYICNVNHKPSNTKVDKKVEPKSCDKTHTCPPCPAPEAAGAPSVFLFPPKPKDTLMISRTPEVTCVVVDVSHEDPEVKFNWYVDGVEVHNAKTKPREEQYNSTYRVVSVLTVLHQDWLNGKEYKCKVSNKALPAPIEKTISKAKGQPREPQVYTLPPSREEMTKNQVSLTCLVKGFYPSDIAVEWESNGQPENNYKTTPPVLDSDGSFFLYSKLTVDKSRWQQGNVFSCSVLHEALHSHYTQKSLSLSPGK
# light: AIQLTQSPSSLSASVGDRVTITCRASPGISSALAWYQQKPGKAPKLLMYDESSQESGVPSRFSGSGSGTDFTLTISSLQPEDFATYYCQQFNDYPLTFGGGTKVEIKRTVAAPSVFIFPPSDEQLKSGTASVVCLLNNFYPREAKVQWKVDNALQSGNSQESVTEQDSKDSTYSLSSTLTLSKADYEKHKVYACEVTHQGLSSPVTKSFNRGEC
# notes: SL-061 with LS half-life extension changes in the Fc
# B3: NH24-47 (scFv, not shown: small tags and cut ends)
# scFv: EVQLVESGGGSVQPGGSLRLSCAASGFTFSSYGMSWVRQAPGKGLEWISYISSSGGHTYYADSVKGRFTISRDNAKNSLYLQMNSLRAEDTAVYYCARYSGAFDRWGQGTPVTVSSGGRGSGGGGSGSGGSDIVMTQSPSSLSASVGDRVTITCQASQDISNYLSWYQQKPGKAPKLLISDASNLETGVPSRFSGSGSGTDFTFTISSLQPEDIATYYCQQYDNLPITFGQGTRLEIKR
# notes: one of the four variants of group m25; used as unpurified E. coli supernatant; the sheet prints NH24-47; also called NH24-47 scFv
# B4: NH24-72 (scFv, not shown: small tags and cut ends)
# scFv: EVQLVESGGGSVQPGGSLRLSCAASGFTFSSYGMNWIRQAPGKGLEWITYISSSGGHTYYADSVKGRFTISRDNAKNSLYLQMNSLRAEDTAVYYCARGQGPFEYWGQGTLVTVSSGGRGSGGGGSGSGGSDIVMTQSPSSLSASVGDRVTITCQASQDISNYLSWYQQKPGKAPKLLINDASNLETGVPSRFSGSGSGTDFTFTISSLQPEDIATYYCQQYDNLPITFGQGTRLEIKR
# notes: one of the four variants of group m25; used as unpurified E. coli supernatant; the sheet prints NH24-72; also called NH24-72 scFv
# B5: SL-038 (antibody, human IgG1, kappa, L234A L235A, V domains shown)
# VH: EVQLVESGGGLSQPGNSLQLSCEASGFTFSNHDMNWVRQAPGKGLEWVAYISSASGLISYADSVRGRFTISRDNAKNSLFLQMNNLKSEDTAMYYCARDPAYSGNYALDFWGQGTQVTVSS
# VL: QPVLTQSPSASASLSGSVKLTCTLSSELSSYTIVWYQQQPDKAPKYVMYLKSDGSHGKGDGIPDRFSGSSSGAHRYLSVSNVQSEDDATYFCGAGYTLAGQYGWVFGSGTKVTVLR
# B6: NH46 (whole antibody) (antibody, human IgG1, kappa, V domains shown)
# VH: QVQLVQSGSEVKKPGASVRVSCKVSGSTVKELSMHWVRQAPGKGLEWMGGYDPEDGESIFAQKFQGRVNMTEDRSTDTAYMELSSLRSEDTAVYYCATDLNWEDAFDVWGQGTMVTVSS
# VL: QSVLTQPPSVSAAPGQKVTISCSGSGSNIGNYYVAWYQQFPGTAPKLLIYDNNKRPSGIPDRFSGSKSGTSATLGITGLQTGDEADYYCGTWDTSLTAGDIYVFGTGTKVTVLR
# B7: NH24 (whole antibody) (antibody, human IgG1, kappa, V domains shown)
# VH: EVQLVESGGGSVQPGGSLRLSCAASGFTFSSYGMSWIRQAPGKGLEWISYISSSGGHTYYADSVKGRFTISRDNAKNSLYLQMNSLRAEDTAVYYCARGSGSFDYWGQGTLVTVSS
# VL: DIVMTQSPSSLSASVGDRVTITCQASQDITNYLSWYQQKPGKAPKLLISDASNLETGIPSRFSGSGSGTDFTFTISSLQPEDIATYYCQQYDTLPITFGQGTRLEIKR
# Key:
# [1] = biological target: T1, biotinylated recombinant human …; test: BLI/Octet; biotinylated TNFRSF25 on streptavidin sensor, mAb in solution; 1:1 Langmuir model
# From the text: Provided herein are monoclonal and biparatopic antibodies that specifically target human TNFRSF25. The monoclonal antibodies were produced in an engineered CHOK1 cell-line by transfecting the cells with vectors genetically encoding the Heavy and Light chain antibody sequences followed by a single-step affinity-capture chromatography using FcXL resins. The final monoclonal antibody preparation was buffer exchanged into PBS, pH 7.4. Production of biparatopic antibodies followed a two-step process. In the first step of the process, the so called Knob-half (or Hole-half) antibody was produced by transfecting an engineered CHOK1 cell-line with vectors genetically encoding the Knob (or the Hole) Heavy chain and the corresponding Light chain sequences. The CHOK1-cell-harvest from the Knob-half antibody and Hole half-antibody was then purified by Protein A column-based chromatography. In the second step of the process, the two half-antibodies were reassembled into the desired biparatopic format by the use of a mild reduction step followed by quenching the reaction with buffer exchange into PBS, pH 7.4. To detect binding of the antibodies to human TNFRSF25, recombinant biotin-conjugated human TNFRSF25 protein was immobilized onto a streptavidin-coated MSD (Meso Scale Discovery) plate and allowed to bind the anti-TNFRSF25 mAbs in solution. Following a washing step, the bound antibodies were detected using a sulfo-tagged anti-human Fc antibody. The results of these MSD assays are shown in arbitrary units (au) on the y-axis of FIG. 1. To determine the binding affinity of the antibodies to recombinant human TNFRSF25 protein, recombinant biotin-conjugated human TNFRSF25 protein was immobilized onto a streptavidin-coated BLI sensor and allowed to bind the anti-TNFRSF25 mAbs in solution phase. The binding affinity (K_D) was calculated using the on-rates (Ka) and off-rates (Kd) of mAb binding to the target using a 1:1 Langmuir binding model in the ForteBio data analysis software.
# [2] = biological target: FcγR1 (CD64), BLI reagent (UniProt P12314 16-288, limits assumed); test: BLI; antibody as analyte at 300 nM on FcγR1
# Sequence of FcγR1 (CD64), BLI reagent (P12314 16-288 limits assumed): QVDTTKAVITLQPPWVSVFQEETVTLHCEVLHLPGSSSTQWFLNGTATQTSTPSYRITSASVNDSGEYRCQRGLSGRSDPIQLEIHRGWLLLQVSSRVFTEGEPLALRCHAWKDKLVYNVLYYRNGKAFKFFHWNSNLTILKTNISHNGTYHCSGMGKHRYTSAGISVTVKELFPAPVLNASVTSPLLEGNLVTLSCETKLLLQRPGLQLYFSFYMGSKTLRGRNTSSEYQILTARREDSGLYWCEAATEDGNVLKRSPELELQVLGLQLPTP
# [3] = biological target: T2, biotinylated recombinant human FcRn-His tagged protein (Acro #FCM-H82W7) (human, UniProt P55899 24-297; P61769 21-119, biotinylated); test: BLI/Octet; biotinylated human FcRn-His on streptavidin biosensor
# T2 construct: also called hFcRn; neonatal Fc receptor
# T2 sequence (P55899 24-297 limits assumed, chain 1 of 2): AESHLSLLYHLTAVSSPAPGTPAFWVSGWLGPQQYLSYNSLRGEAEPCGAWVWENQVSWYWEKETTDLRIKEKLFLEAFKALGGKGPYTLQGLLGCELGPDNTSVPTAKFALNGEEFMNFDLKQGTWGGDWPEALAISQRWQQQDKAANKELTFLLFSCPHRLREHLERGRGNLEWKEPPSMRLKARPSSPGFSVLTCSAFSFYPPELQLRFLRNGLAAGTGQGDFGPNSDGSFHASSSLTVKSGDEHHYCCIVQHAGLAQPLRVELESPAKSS
# T2 sequence (P61769 21-119 limits assumed, chain 2 of 2): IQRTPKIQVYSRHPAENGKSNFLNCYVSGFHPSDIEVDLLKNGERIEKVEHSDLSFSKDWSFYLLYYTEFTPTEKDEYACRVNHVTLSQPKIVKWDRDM
# Method: (§1) Figure 5D: FIG. 5D. FcRn binding kinetics by anti-TNFRSF25 antibodies. BLI assay was performed using the Octet Red 96e instrument. Streptavidin biosensors were loaded with biotinylated recombinant human(h) FcRn-His tagged protein (Acro #FCM-H82W7) as the ligand. During the association phase, biosensors were incubated with anti-DR3 candidate antibodies at various concentrations for 600 seconds, followed by a 600-second dissociation phase.
# (§2) To detect binding of certain whole antibodies to the neonatal Fc receptor (FcRn) at neutral and acidic pH conditions, streptavidin biosensors were loaded with biotinylated recombinant human FcRn-His tagged protein (Acro #FCM-H82W7) as the ligand. During the association phase, biosensors were incubated with anti-TNFRSF25 antibodies at various concentrations for 600 seconds, followed by a 600 second dissociation phase.
# [4] = biological target: T2, biotinylated recombinant human FcRn-His …; test: BLI/Octet; biotinylated human FcRn-His on streptavidin biosensor; pH 6.0
# Method: as §1, §2
# [5] = biological target: T1, biotinylated recombinant human …; test: MSD competition (lower panel); antibody on TNFRSF25-coated plate, wash, then TL1A-rabbit Fc at 0.4 ug/ml, sulfo-tag anti-rabbit detection; raw MSD signal
# Method: (§3) Figure 6: FIG. 6. […] Human TNFRSF25 was precoated on MSD assay plates followed by incubating with various concentrations of anti-TNFRSF25 antibodies.
# [6] = biological target: T2, biotinylated recombinant human FcRn-His …; test: BLI/Octet; biotinylated human FcRn-His on streptavidin biosensor; pH 7.4
# Method: as §1, §2
# [7] = biological target: T1, biotinylated recombinant human …; test: MSD competition; scFv supernatant serially diluted on TNFRSF25-coated plate, then TL1A added and the remaining TL1A detected
# From the text: (FIG. 2A) TNFRSF25 was precoated on MSD assay plates followed by adding scFv supernatant at 2-fold serial-dilutions followed by detection of the myc tag present on the C-terminus of the scFv's. (FIG. 2B) scFv supernatant were serially diluted and added to an MSD-plate pre-coated with TNFRSF25.
# [8] = biological target: T1, biotinylated recombinant human …; test: MSD competition; TNFRSF25 on plate, antibody titrated, then TL1A-rabbit Fc 0.4 µg/ml as competitor
# Method: as §3
# [9] = biological target: T1, biotinylated recombinant human …; test: BLI/Octet Red 96e; biotinylated TNFRSF25-His on streptavidin biosensor; 600 s association, 600 s dissociation
# Method: Figure 4: FIG. 4. TNFRSF25 binding affinity of anti-TNFRSF25 antibodies. BLI assay was performed using the Octet Red 96e instrument. Streptavidin biosensors were loaded with biotinylated recombinant human TNFRSF25-His tagged (Acro #TN5-H52H3) as the ligand. During the association phase, biosensors were incubated with anti-TNFRSF25 antibodies at various concentrations for 600 seconds, followed by a 600-second dissociation phase.
# as §2, with “human TNFRSF25,” for “the neonatal Fc receptor (FcRn) at neutral and acidic pH conditions,”, “TNFRSF25-His” for “FcRn-His”, “tagged” for “tagged protein”, “#TN5-H52H3)” for “#FCM-H82W7)”
binder,measurement,setting,value
B1,Kd,[1],< 1 nM
same,binding result,[2],no binding (tested: 300 nM)
B2,fold improvement in binding affinity at pH 6.0 compared to pH 7.4,[3],~10 fold
same,Kd,[4],0.879 nM
same,koff,[4],0.000181 s⁻¹
same,kon,[4],206000 M⁻¹ s⁻¹
same,IC50 (read off the curve),[5],~0.2 nM
same,Kd,[6],6.78 nM
same,koff,[6],0.00144 s⁻¹
same,kon,[6],213000 M⁻¹ s⁻¹
B3,binding result,[7],binds
B4,binding result,[7],binds
B5,Kd,[1],3.6 nM
B6,Kd,[1],0.185 nM
same,IC50,[8],0.26 nM
same,Response (RU),[9],1.06 RU
same,koff,[9],8.54e-05 s⁻¹
same,kon,[9],452000 M⁻¹ s⁻¹
B7,Kd,[1],0.59 nM
same,IC50,[8],39.4 nM
same,Response (RU),[9],0.73 RU
same,koff,[9],0.000742 s⁻¹
same,kon,[9],1.26e+06 M⁻¹ s⁻¹
